Patent publication US20150344583A1 (Amgen, published 2015)

Columns and labels:
[1] = molecular target: T1, human BCMA (huBCMA) on cells (human, UniProt Q02223 1-184); assay: cell-based or functional assay
T1 chain: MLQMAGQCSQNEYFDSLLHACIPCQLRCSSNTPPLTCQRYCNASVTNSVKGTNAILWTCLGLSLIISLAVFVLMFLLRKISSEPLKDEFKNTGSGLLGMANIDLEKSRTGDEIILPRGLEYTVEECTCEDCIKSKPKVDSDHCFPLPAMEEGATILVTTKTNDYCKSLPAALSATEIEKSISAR

[2] = molecular target: T1, human BCMA (huBCMA) on cells; assay: FACS on H929 cells (native BCMA, relative binding, indirect)
[3] = molecular target: T2, clipped form of Sumo-huBCMA, SEQ ID NO:357 (human); assay: SEC and LC/MS
T2 chain: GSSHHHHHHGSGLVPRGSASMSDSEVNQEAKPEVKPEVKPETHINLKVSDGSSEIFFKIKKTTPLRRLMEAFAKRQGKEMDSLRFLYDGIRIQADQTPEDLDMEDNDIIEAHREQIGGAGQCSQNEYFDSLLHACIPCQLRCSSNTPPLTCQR

[4] = molecular target: T3, clipped form of Sumo-huBCMA, SEQ ID NO:355 (human); assay: SEC of antibody and Sumo-BCMA mixtures
T3 chain: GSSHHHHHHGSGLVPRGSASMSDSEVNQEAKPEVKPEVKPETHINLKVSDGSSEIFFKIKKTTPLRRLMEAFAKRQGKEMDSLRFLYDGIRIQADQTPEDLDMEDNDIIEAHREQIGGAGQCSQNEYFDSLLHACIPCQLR

[5] = molecular target: T4, clipped form of Sumo-huBCMA, SEQ ID NO:356 (human); assay: SEC of antibody and Sumo-BCMA mixtures
T4 construct: the species in the SEC peak came from the Sumo fusion, so it may carry the tag
T4 chain: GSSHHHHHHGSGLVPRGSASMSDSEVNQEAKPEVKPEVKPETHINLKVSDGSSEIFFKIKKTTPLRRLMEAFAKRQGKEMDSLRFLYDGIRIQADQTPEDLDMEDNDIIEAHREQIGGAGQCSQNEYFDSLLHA

[6] = molecular target: T5, clipped form of Sumo-huBCMA, SEQ ID NO:354 (human); assay: SEC of antibody and Sumo-BCMA mixtures
T5 construct: also called peak A
T5 chain: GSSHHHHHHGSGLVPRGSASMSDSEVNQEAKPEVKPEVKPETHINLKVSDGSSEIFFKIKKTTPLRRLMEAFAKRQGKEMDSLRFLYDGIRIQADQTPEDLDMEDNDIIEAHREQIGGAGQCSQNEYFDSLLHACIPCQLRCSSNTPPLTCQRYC

[7] = molecular target: T6, cynomolgus (Macaca fascicularis) BCMA on cells (cynomolgus (Macaca fascicularis), UniProt Q02223 1-184 (human entry)); assay: summary sentence of Example 16; assay for cynomolgus BCMA not given there
T6 construct: also called cyno BCMA; cynomolgus BCMA
T6 sequence (Q02223 other isoform, or with tags, fused parts or gaps): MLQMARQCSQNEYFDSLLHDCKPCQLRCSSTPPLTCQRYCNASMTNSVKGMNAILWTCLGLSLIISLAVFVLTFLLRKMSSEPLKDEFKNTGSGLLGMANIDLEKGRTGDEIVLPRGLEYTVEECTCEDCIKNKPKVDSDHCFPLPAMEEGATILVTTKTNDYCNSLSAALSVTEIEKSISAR

B1: 32B5-MCC-DM1 (antibody, V domains shown)
VH: EVQLLESGGALVQPGGSLRLSCAASGFTFSSYAMNWVRQAPGKGLEWVSAISVGGDTYYADSVKGRFTISRDNSKNTLYLHVNSLSAEDSAVYYCAKDQVTLVRGVWYYYGLDVWGQGTTVTVSS
VL: VIVLIQSPLSLPVTPGEPASISCRSSQSLLHSNGNNYLDWYLQKPGQSPHLLISLGSNRTSGVPDRFSGSGSGTDFTLKISRVEAEDVGFYYCMQALQPPRRFGQGTKLEIKR
notes: MCC-DM1 conjugate of '32B5'
**Q.** How did the “IC50, H929 cell growth (CellTiter-Glo, 96 h)” value [1] turn out when B1 was run?
**A.** 0.506 nM

**Q.** What about the EC50 [2] of the same binder?
**A.** 7 nM

B2: Ab-1 (2A1CV5) (antibody, human IgG1, lambda, V domains shown)
VH: EVQLVESGGGLVKPGGSLRLSCAASGFTFGDYALSWFRQAPGKGLEWVGVSRSKAYGGTTDYAASVKGRFTISRDDSKSTAYLQMNSLKTEDTAVYYCASSGYSSGWTPFDYWGQGTLVTVSS
VL: not shown
**Q.** Does B2 bind [3]?
**A.** binds

**Q.** Does B2 bind [4]?
**A.** binds

**Q.** Does B2 bind [5]?
**A.** binds

**Q.** Does B2 bind [6]?
**A.** binds

**Q.** Does B2 bind [7]?
**A.** binds
